The source of these data is patent publication US20160228506A1, “Compositions and Formulations for Prevention and Reduction of Tumorigenesis, Cancer Cell Proliferation and Invasion, and Methods of Production and Use Thereof in Cancer Treatment” (PRONUTRIA, INC., priority 2013, published 2016).

To fix the notation:
B1: SEQID-00241: nutritive polypeptide (protein, listed as Bos taurus)
chain: SELKKDIDDLELTLAKVEKEKHATENKVKNLTEEMAGLDETIAKLTKEKKALQEAHQQTLDDLQAEEDKVNTLTKAKTKLEQQVDDLEGSLEQEKKLRMDLERAKRKLEGDLKLA
B2: SEQID-00510: nutritive polypeptide naturally produced in Turkey, recombinantly expressed in E. coli (protein)
chain: MVPIAEKMAEKQEEPSNTQNGEPDNAEEGEGKKKKKVKREDLPPFEIVTGERLPAIFFKFQFRNVEYSSGRNKTFLCYVVETQGKESTTSRGYLEDEHAASHAEIAFFNTILPKCESSLRYNITWYVSSSPCVTCADRISETLRKNKNLRLTIMVGRLFMWEEPEMQAALKKMKSAGCKLRIMKPQDFEYVWQNFVEQEEGEEAKAFVPWEDIQENFQYYEEKLAEILQ
modifications: Meleagris gallopavo
notes: nutritive polypeptide naturally produced in Turkey, recombinantly expressed in E. coli
B3: SEQID-00100: nutritive polypeptide (protein, listed as Lactobacillus acidophilus)
chain: MSEEEIFNKIKDLIADNFEVDKDSITENTNFMNDLDADSIDLVEFILQLEDEFGAEIPDDEAEKIKTVGDAVSYIKSHQG
B4: SEQID-00265: nutritive polypeptide (protein, listed as Bos taurus)
chain: SEGDRLRVELAEKANKLQNELDNVSTLLEEAEKKGIKFAKDAAGLESQLQDTQELLQEETRQKLNLSSRIRQLEEERSSLQEQQEEEEEARRSLEKQLQALQAQLTDTKKKVDDDLGTIENLEEAKKKLLKDVEVLSQRLEEKALAYDKLEKTKTRLQQELDDLLVDLDHQRQIVSNLEKKQKKFDQLLAEEKNISARYAEERDRAEAEAREKETKALSLARALEEALEAREEAERQNKQLRADMEDLMSSKDDVGKNVHELEKSKRALE
B5: SEQID-00622: protein of the 168 nutritive polypeptide library (protein, listed as Oryza sativa)
chain: MASEGAVSPAFAYTVVYVKDVAKSAAFYSAAFGYTVRRLDQSHKWAELESGTTTIAFTPLHQRETDALTGAVQLPDSAGERGPVEICFDYADVDAAYRRAVDSGAVPVSPPEQKSWGQKVGYVRDIDGIIVRMGSHVRA
modifications: source: /note="subsp. japonica"
notes: protein of the 168 nutritive polypeptide library
B6: SEQID-00511: protein of the 168 nutritive polypeptide library (protein)
chain: MVLFGFGKKKSLPKPEEALPGRDRVMSVPDRHYINGNPLKPPFPEGMEQAVFGLGCFWGAERKFWQQQGVFSTAVGYAGGYTKNPTYEEVCSGMTGHTEVVLVVFDPKVISYTDLLKLFWESHNPTQGMRQGNDTGTQYRSAIYTYSDEQQRLALASRDRYQQALSAASYGEITTEIAPAQEFYYAEAYHQQYLGKNPNGYCGLGGTGVGCPAMTETSV
modifications: Arthrospira platensis C1
notes: as for B5
B7: SEQID-00502: protein of the 168 nutritive polypeptide library (protein)
chain: MASQSNTKSVHDFTVKDARGNNVNLADYKGKVLLIVNVASQCGLTNSNYTELNQLYEKYKGKGLEILAFPCNQFGAQEPGTNEEIVEFACTRFKAEFPIFDKVDVNGDNAAPLYKFLKSSKGGLFGDSIKWNFSKFLVDKDGNVVDRYAPTTSPLSIEKDIKKLLDA
modifications: Glycine max
notes: as for B5
B8: SEQID-00226: nutritive polypeptide (protein, listed as Bos taurus)
chain: QLQALQAQLTDTKKKVDDDLGTIENLEEAKKKLLKDVEVLSQRLEEKALAYDKLEKTKTRLQQELDDLLVDLDHQRQIVSNLEKKQKKFDQLLAEEKNIS
B9: SEQID-00269: nutritive polypeptide (protein)
chain: DLKKKLDDDLGTLENLEELKKKLLKDLELLSQRLEELALAYDKLEKTKTRLQQELDDLLLDLDHQ

The first data set is described as follows: Intact half-life during simulated gastric fluid (SGF) digestion. The conditions noted are these: SGF pH 1.5, pepsin:polypeptide 1:20 w/w, 37° C.; intact protein.
Turning to B1, the “SGF Half-life (t½)” value was 18 s.

For B2, the “SGF Half-life (t½)” value was 18 s.

As for B3, the “SGF Half-life (t½)” value is 120 s.

With B4, the “SGF Half-life (t½)” value was 1740 s.

As for B5, the “SGF Half-life (t½)” value is 396 s.

Turning to B6, the “SGF Half-life (t½)” value was 18 s.

Take B7: the “SGF Half-life (t½)” value is 36 s.

As to B8, the “SGF Half-life (t½)” value was 42 s.

On to B9, for which the “SGF Half-life (t½)” value is 2460 s.

The same data set, now with this note: purified proteins, chip electrophoresis.
In the case of B2, the “Half-life” value was 18 s.

B5: the “Half-life” value was 396 s.

Turning to B6, the “Half-life” value was 18 s.

As for B7, the “Half-life” value is 36 s.

Another data set is described as follows: SGF digest of 168 nutritive polypeptide library, intact protein by LC-MS/MS. Format: in vitro ADME. The conditions noted are these: 168 nutritive polypeptide library SGF digest, LC-MS/MS spectral counts. The method in brief: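 Spectral-count ratios (10 min vs 0 min, peak gel fraction plus neighbours) give the percent of each protein left intact after SGF digestion of a pooled, IMAC-purified 168-member recombinant library. Samples were gel-fractionated, trypsinised in-gel and run on Orbitrap nanoLC-MS/MS, requiring two unique peptides at 1% FDR.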
Turning to B2, the “% Intact Protein at 10 min” value turned out to be 13.4%.

Turning to B5, the “% Intact Protein at 10 min” value came to 43.6%.

On to B6, for which the “% Intact Protein at 10 min” value is 4.3%.

As for B7, the “% Intact Protein at 10 min” value worked out at 9.7%.

Still in this data set, the particulars now being: 168 nutritive polypeptide library, LC-MS/MS.
B2: the “% Remaining at 10 min” value was 13.4%.

Regarding B5, the “% Remaining at 10 min” value is 43.6%.

B6: the “% Remaining at 10 min” value is reported as 4.3%.

B7: the “% Remaining at 10 min” value is on record as 9.7%.

A further data set is described as follows: Thermostability, temperature of aggregation (ProteoStat Thermal Shift). Format: physicochemical. Further details: key to Tagg: temperature in °C. The conditions noted are these: Table E31D; heated 25° C. to 95° C. As to the method: The thermostability of proteins in a buffer cocktail of Citric Acid and Dibasic Sodium Phosphate over a pH range of 2.8 to 7.1 (preparation described above in Table E31B) was determined using the ProteoStat® Thermal Shift Stability Kit (Enzo Life Sciences) according to the manufacturer's standard protocol. Briefly, protein solutions (˜10 mg/ml) containing 1× ProteoStat TS Detection Reagent were heated from 25° C. to 95° C. at a rate of 0.5° C. per 30 sec using a real-time PCR (rtPCR) thermocycler (BioRad) equipped with a plate reader (SynergyMx, Biotek) while monitoring the fluorescence with a Texas Red filter.
As for B1, the “Tagg (pH 7.1)” value was >95.

In the case of B2, the “Tagg (pH 7.1)” value is recorded as 57.5.

For B4, the “Tagg (pH 7.1)” value is >95.

As for B8, the “Tagg (pH 7.1)” value is recorded as >95.

Consider B9, for which the “Tagg (pH 7.1)” value is reported as >95.

Still in this data set, the particulars now being: pH 2.8.
Regarding B3, the Tagg turned out to be 95.

B5: the Tagg was determined as 58.5.

Turning to B7, the Tagg is 95.

The same data set, now with this note: pH 3.7.
For the molecule B3, the Tagg came out at 95.

As for B5, the Tagg is 42.

On to B7, for which the Tagg was 95.

Still in this data set, the particulars now being: pH 3.9.
Regarding B3, the Tagg stood at 95.

As for B5, the Tagg is on record as 42.

The same data set, now with this note: pH 4.3.
As to B3, the Tagg is listed as 83^.

With B5, the Tagg came out at 43.5.

B7: the Tagg is 95^.

Staying with this data set, now noted: pH 4.6.
B3: the Tagg was 84^.

Regarding B5, the Tagg was 43.5.

Turning to B7, the Tagg is recorded as 95^.

Staying with this data set, now noted: pH 5.0.
With B3, the Tagg is listed as 95.

As to B5, the Tagg was found to be 42.5.

On to B7, for which the Tagg came to 77.

Staying with this data set, now noted: pH 5.6.
With B3, the Tagg is on record as 95.

B5: the Tagg is on record as 45.5.

B7: the Tagg stood at 77.

Still in this data set, the particulars now being: pH 6.0.
For B3, the Tagg is 95.

With B5, the Tagg was 46.

For B6, the Tagg is 39.5.

Regarding B7, the Tagg is given as 76.5.

Still in this data set, the particulars now being: pH 6.5.
On to B3, for which the Tagg is given as 95.

For B5, the Tagg amounted to 47.

Consider B6, for which the Tagg worked out at 45.5.

As to B7, the Tagg stood at 78.5.

Staying with this data set, now noted: pH 7.1.
For the molecule B3, the Tagg is >95.

B5: the Tagg was 95.

As to B6, the Tagg came to 42.

As to B7, the Tagg turned out to be 95.

The next data set in a line: pH solubility. The data set is classed as physicochemical. Conditions: lower pH. On the procedure:
pH Solubility. […] Protein was either lyophilized and then resuspended in buffer cocktail mixtures, or concentrated and then spiked into buffer cocktail mixtures at a final protein concentration of 5 to 30 mg/ml. As a control, protein was also dissolved in a solution of 8 M urea. Protein solutions were shaken for 10 min at room temperature. Turbidity of proteins was determined by measuring the absorbance of protein solutions at 650 nm. The protein solution was then centrifuged for 10 min at 1100×g to pellet undissolved or precipitated protein. The soluble protein fraction (supernatant) was sampled and protein concentration was measured by one or more of the following methods: Coomassie Plus Protein Assay (Pierce), Chip electrophoresis, gel electrophoresis, and/or absorbance at 280 nm. The pH range over which select proteins remained greater than 80% soluble as determined by Bradford and the A650 value are listed in Table E31C.
As to B1, the “pH Range where Protein is >80% detected as Soluble and A650 <1 OD: Low” value (from here on “pH Range where Protein is >80% detected … Low”) is 4.3.

For the molecule B2, the “pH Range where Protein is >80% detected … Low” value came out at 6.5.

For the molecule B3, the “pH Range where Protein is >80% detected … Low” value is 4.3.

B4: the “pH Range where Protein is >80% detected … Low” value was found to be 5.1.

For the molecule B5, the “pH Range where Protein is >80% detected … Low” value stood at 2.8.

With B6, the “pH Range where Protein is >80% detected … Low” value is reported as 5.6.

With B7, the “pH Range where Protein is >80% detected … Low” value came to 7.1.

For B8, the “pH Range where Protein is >80% detected … Low” value was 2.6.

For the molecule B9, the “pH Range where Protein is >80% detected … Low” value was 7.2.

Staying with this data set, now noted: other pH.
As for B2, the “pH Range where Protein is >80% detected as Soluble and A650 <1 OD: Other” value (“pH Range where Protein is >80% detected … Other” below) is listed as 2.8.

On to B4, for which the “pH Range where Protein is >80% detected … Other” value stood at 3.

With B7, the “pH Range where Protein is >80% detected … Other” value is 2.8.

Staying with this data set, now noted: upper pH.
Turning to B1, the “pH Range where Protein is >80% detected as Soluble and A650 <1 OD: High” value (“pH Range where Protein is >80% detected … High” for short) was 9.1.

For the molecule B2, the “pH Range where Protein is >80% detected … High” value came out at 7.1.

Take B3: the “pH Range where Protein is >80% detected … High” value worked out at 7.1.

As to B4, the “pH Range where Protein is >80% detected … High” value was found to be 9.1.

In the case of B5, the “pH Range where Protein is >80% detected … High” value is listed as 7.1.

As for B6, the “pH Range where Protein is >80% detected … High” value worked out at 7.1.

In the case of B8, the “pH Range where Protein is >80% detected … High” value came to 9.1.

As for B9, the “pH Range where Protein is >80% detected … High” value worked out at 9.1.
